The values that follow are results of earlier work, collected in article PMC12203939.

The term Kd denotes the equilibrium constant for the complex coming apart.

Data set [1] addresses PKA regulatory subunit RI (Homo sapiens) (UniProt P10644).
Data set [2] addresses PKA regulatory subunit RII (Homo sapiens) (UniProt P13861).

OPA1, sequence (O60313 195-960): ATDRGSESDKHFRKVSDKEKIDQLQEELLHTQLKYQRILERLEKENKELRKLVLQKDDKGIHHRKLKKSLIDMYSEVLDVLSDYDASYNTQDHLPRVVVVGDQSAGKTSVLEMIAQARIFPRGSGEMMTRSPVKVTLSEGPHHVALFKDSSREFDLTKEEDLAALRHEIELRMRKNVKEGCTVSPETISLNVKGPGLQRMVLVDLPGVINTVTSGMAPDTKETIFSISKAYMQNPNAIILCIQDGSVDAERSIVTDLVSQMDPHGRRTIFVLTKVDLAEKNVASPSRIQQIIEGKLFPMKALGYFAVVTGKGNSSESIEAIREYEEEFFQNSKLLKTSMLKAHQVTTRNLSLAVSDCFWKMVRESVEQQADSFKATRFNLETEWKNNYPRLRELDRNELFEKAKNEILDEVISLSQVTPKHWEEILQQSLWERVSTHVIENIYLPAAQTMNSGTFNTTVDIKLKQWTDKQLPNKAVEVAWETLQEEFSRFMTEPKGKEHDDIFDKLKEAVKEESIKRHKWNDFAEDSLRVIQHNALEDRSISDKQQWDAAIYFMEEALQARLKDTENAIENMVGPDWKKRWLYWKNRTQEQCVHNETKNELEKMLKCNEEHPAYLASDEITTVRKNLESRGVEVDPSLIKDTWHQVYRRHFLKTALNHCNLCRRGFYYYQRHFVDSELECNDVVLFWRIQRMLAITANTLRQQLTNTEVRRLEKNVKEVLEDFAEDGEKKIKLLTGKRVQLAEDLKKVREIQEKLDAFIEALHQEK
PKA regulatory subunit RII (Homo sapiens), sequence (P13861 2-404): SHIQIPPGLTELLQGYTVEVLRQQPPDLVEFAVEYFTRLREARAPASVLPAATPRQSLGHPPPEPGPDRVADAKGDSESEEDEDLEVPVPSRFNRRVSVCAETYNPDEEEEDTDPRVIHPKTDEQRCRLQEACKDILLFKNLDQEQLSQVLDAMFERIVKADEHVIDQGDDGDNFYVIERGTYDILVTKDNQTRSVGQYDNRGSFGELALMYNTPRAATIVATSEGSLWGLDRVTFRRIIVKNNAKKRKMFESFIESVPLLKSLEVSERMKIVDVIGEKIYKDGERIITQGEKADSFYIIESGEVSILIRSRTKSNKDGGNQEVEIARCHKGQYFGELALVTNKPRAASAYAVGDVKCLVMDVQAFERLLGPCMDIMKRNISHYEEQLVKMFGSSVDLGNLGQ
PKA regulatory subunit RI (Homo sapiens), sequence (P10644 whole entry): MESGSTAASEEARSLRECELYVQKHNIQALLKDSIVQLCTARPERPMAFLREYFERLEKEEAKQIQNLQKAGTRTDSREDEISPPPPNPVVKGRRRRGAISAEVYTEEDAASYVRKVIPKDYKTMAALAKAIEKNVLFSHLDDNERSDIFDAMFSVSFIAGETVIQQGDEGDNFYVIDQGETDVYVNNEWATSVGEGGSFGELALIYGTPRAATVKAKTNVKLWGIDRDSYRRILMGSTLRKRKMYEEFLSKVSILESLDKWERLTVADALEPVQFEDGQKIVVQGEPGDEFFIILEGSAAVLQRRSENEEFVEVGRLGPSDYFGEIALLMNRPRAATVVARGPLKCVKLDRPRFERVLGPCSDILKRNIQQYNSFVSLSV

As to OPA1 (from UniProt O60313), the values for the Kd in data set [1] and in data set [2] were 12.5 nM and 14 nM, respectively.
